Patent US20180111984A1 (Teva, published 2018)
Ends that are not written are not given here.

B1: human β-CGRP (1-37) (peptide)
peptide: ACNTATCVTHRLAGLLSRSGGMVKSNFVPTNVGSKAF-NH2
modifications: cysteine pairing not given here
notes: also called human β (1-37); 1-37 of β-CGRP (WT)
B2: human α-CGRP 1-36-COOH (peptide)
peptide: ACDTATCVTHRLAGLLSRSGGVVKNNFVPTNVGSKA-OH
modifications: ends and bridges not checked
notes: not C-terminally amidated; also called 1-36 (not amidated at the C-terminus)

Biological target: T1, antibody G1 Fab fragment
T1 construct: Fab expressed in E. coli; purified on Ni-NTA, tag not described
Assay: Biacore competition: 10 µM peptide with 50 nM G1 Fab over human α-CGRP chip
Source text: Y axis represents percentage of binding blocked by the presence of the competing peptide compared with the binding in the absence of the competing peptide.
All these peptides are amidated at the C-terminus.

T1 sequence (VH, as listed by the source, chain 1 of 2): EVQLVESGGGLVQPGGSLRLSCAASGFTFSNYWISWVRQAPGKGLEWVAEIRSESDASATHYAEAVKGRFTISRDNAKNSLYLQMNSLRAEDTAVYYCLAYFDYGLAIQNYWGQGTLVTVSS
T1 sequence (VL, as listed by the source, chain 2 of 2): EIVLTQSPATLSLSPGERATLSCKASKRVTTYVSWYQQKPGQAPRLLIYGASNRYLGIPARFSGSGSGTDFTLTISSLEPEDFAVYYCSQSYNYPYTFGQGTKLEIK

percentage of binding blocked [%] | Binder
100 | ACDTATCVTHRLAGLLSRSGGVVKNNFVPTNVGSKAF-NH2 (cysteine pairing not given here, also called full length human α-CGRP) [human α-CGRP 1-37 (WT)]
100 | B1
100 | SCNTATCVTHRLAGLLSRSGGVVKDNFVPTNVGSKAF-NH2 (cysteine pairing not given here, also called rat β (1-37)) [rat β-CGRP (1-37)]
100 | VTHRLAGLLSRSGGVVKNNFVPTNVGSKAF-NH2 [human α-CGRP 8-37]
100 | NFVPTNVGSKAF-NH2 [human α-CGRP 26-37]
~40 | B2
